The values that follow come from patent US20230265217A1 (TWIST BIOSCIENCE, published 2023).

Holding throughout (assay): Carterra SPR
In assay [1] the target is T1, Antibody 178-08_His 501.V2 (27079) (SARS-CoV-2, UniProt P0DTC2 14-685).
T1 construct: domain: S1; also called TB178-8

Assay [2] has as its target T2, Antibody 178-10_His CA_W152C_L452R_D614G (27081) (SARS-CoV-2, UniProt P0DTC2 14-685).
T2 construct: domain: S1; also called CA variant S1; California variant S1

In assay [3] the target is T3, Antibody 178-09_His B.1.1.7 (27080) (SARS-CoV-2, UniProt P0DTC2 14-685).
T3 construct: domain: S1; also called TB178-9

The target of assay [4] is T4, S1 RBD L452R E484Q (Acro) (SARS-CoV-2, UniProt P0DTC2 319-537).
T4 construct: domain: S1 RBD; also called SARS-COV-2 RBD India Var; L452R E484Q S1; India variant mutation L452R E484Q

For assay [5], the target named is T2, Antibody 178-10_His …. The source holds these as a separate data set.
For assay [6], the target named is T3, Antibody 178-09_His B.1.1.7 (27080). This is another data set of the same source.

What is called Kd is a measure of binding affinity in units of concentration. Low readings indicate higher affinity, high ones lower affinity.

Where two headings read alike, the source gives them in different places.

B1: 8-10 (VHH, not shown: a dimerising Fc or GST)
VHH: EVQLVESGGGLVQPGGSLRLSCAASGFIGNYHAMGWFRQAPGKEREFVAAVTWSGGTTNYADSVKGRFTISADNSKNTAYLQMNSLKPEDTAVYYCAREGYYYDSSGYPYYFDYWGQGTLVTVSS
As for B1, the binding result in assay [1] and in assay [2] was “no binding” in each case. The same molecule gave a Kd in assay [3] of 377 nM.

B2: 7-17 (VHH, not shown: a dimerising Fc or GST)
VHH: EVQLVESGGGLVQPGGSLRLSCAASGFSLDYYGMGWFRQAPGKEREFVAAITSGGTPHYADSVKGRFTISADNSKNTAYLQMNSLKPEDTAVYYCASAYNPGIGYDWGQGTLVTVSS
As to B2, the binding result in assay [1] and in assay [2] was “no binding” each time. In addition, in assay [3], the dissociation constant Kd is 39.8 nM.

B3: 7-30 (VHH, not shown: a dimerising Fc or GST)
VHH: EVQLVESGGGLVQPGGSLRLSCAASGRTFSMHAMGWFRQAPGKEREFVASISSQGRTNYADSVKGRFTISADNSKNTAYLQMNSLKPEDTAVYYCAAEVRNGSDYLPIDWGQGTLVTVSS
Take B3: the binding result in assay [1] and in assay [4] was “no binding” throughout. Also, the Kd in assay [2] is 55.9 nM; in assay [3] it was 32 nM; in assay [5] it was 55.9 nM; in assay [6] it was 32 nM.

B4: 7-8 (VHH)
VHH: EVQLVESGGGLVQPGGSLRLSCAASGSTFTINAMGWFRQAPGKEREFVSGISHNGGTTNYADSVKGRFTISADNSKNTAYLQMNSLKPEDTAVYYCAADGVPEYSDYASGPVWGQGTLVTVSS
Turning to B4, the binding result in assay [1], in assay [2], in assay [4] and in assay [3] was “no binding” in each case.

B5: 7-6 (VHH, not shown: a dimerising Fc or GST)
VHH: EVQLVESGGGLVQPGGSLRLSCAASGRIFYPMGWFRQAPGKEREFVAAVRWSSTGIYYTQYADSVKGRFTISADNSKNTAYLQMNSLKPEDTAVYYCAAALSEVWRGSENLREGYDWGQGTLVTVSS
With B5, the binding result in assay [1], in assay [2] and in assay [4] was “no binding” each time. For the same molecule, the Kd in assay [3] is 42.4 nM.

B6: 7-32 (VHH)
VHH: EVQLVESGGGLVQPGGSLRLSCAASGSTFSVNAMGWFRQAPGKEREFVAGVTRGGYTNYADSVKGRFTISADNSKNTAYLQMNSLKPEDTAVYYCAADGVPEYSDYASGPVWGQGTLVTVSS
Turning to B6, the binding result in assay [1], in assay [2] and in assay [4] was “no binding” throughout. Besides, the Kd in assay [3] was 62.4 nM.

B7: 3-17 (VHH, not shown: a dimerising Fc or GST)
VHH: EVQLVESGGGLVQPGGSLRLSCAASGRTSSSAVMGWFRQAPGKEREFVAAINRGGSTIYVDSVKGRFTISADNSKNTAYLQMNSLKPEDTAVYYCATGPYRSYFARSYLWGQGTLVTVSS
Regarding B7, the binding result in assay [1], in assay [2], in assay [4] and in assay [3] was “no binding” throughout.

B8: 5A-1 (VHH)
VHH: EVQLVESGGGLVQPGGSLRLSCAASGGTFSSIGMGWFRQAPGKEREFVAAISWDGGATAYADSVKGRFTISADNSKNTAYLQMNSLKPEDTAVYYCAKEDVGKPFDWGQGTLVTVSS
In assay [5], B8 had a dissociation constant Kd of 12.7 nM.

B9: 7-31 (VHH, not shown: a dimerising Fc or GST)
VHH: EVQLVESGGGLVQPGGSLRLSCAASGFTFSNYSMGWFRQAPGKEREFVAAIHWNGDSTAYADSVKGRFTISADNSKNTAYLQMNSLKPEDTAVYYCAAQTEDSAQYIWGQGTLVTVSS
For the molecule B9, the binding result in assay [1], in assay [2] and in assay [4] was “no binding” throughout. This molecule came in with a Kd in assay [3] of 388 nM.

B10: 6A-3 (VHH)
VHH: EVQLVESGGGLVQPGGSLRLSCAASGFTFSPSWMGWFRQAPGKEREFVATINEYGGRNYADSVKGRFTISADNSKNTAYLQMNSLKPEDTAVYYCARVDRDFDYWGQGTLVTVSS
In assay [5], B10 showed a Kd of 26.8 nM.

B11: 3-24 (VHH, not shown: a dimerising Fc or GST)
VHH: EVQLVESGGGLVQPGGSLRLSCAASGINFSRYGMGWFRQAPGKEREFVASITYLGRTNYADSVKGRFTISADNSKNTAYLQMNSLKPEDTAVYYCALRVRPYGQYDWGQGTLVTVSS
As to B11, the Kd amounted to 586 nM in assay [1] and 2610 nM in assay [3]. In addition, the binding result in assay [2] and in assay [4] was “no binding” each time.

B12: 7-24 (VHH, not shown: a dimerising Fc or GST)
VHH: EVQLVESGGGLVQPGGSLRLSCAASGFTFSRHAMNWFRQAPGKEREFVSTITGSGGSTNYADSVKGRFTISADNSKNTAYLQMNSLKPEDTAVYYCAREVGLYYYGSGSSSRRLLGRIDYYFDYWGQGTLVTVSS
On to B12, for which the binding result in assay [1], in assay [2], in assay [4] and in assay [3] was “no binding” throughout.

B13: 8-06 (VHH, not shown: a dimerising Fc or GST)
VHH: EVQLVESGGGLVQPGGSLRLSCAASGFTFDYYAMGWFRQAPGKEREFVSAIDSEGRTSYADSVKGRFTISADNSKNTAYLQMNSLKPEDTAVYYCARWGPFDIWGQGTLVTVSS
notes: also called 8-6
Take B13: the binding result in assay [1] and in assay [2] was “no binding” in each case. The molecule also yielded a Kd in assay [3] of 141 nM.

B14: 6A-63 (VHH)
VHH: EVQLVESGGGLVQPGGSLRLSCAASGQTFNMGWFRQAPGKEREFVAAIGSGGSTSYADSVKGRFTISADNSKNTAYLQMNSLKPEDTAVYYCWRLGNDYFDYWGQGTLVTVSS
Consider B14, for which the binding result in assay [5] is on record as “no binding”.

B15: 8-3 (VHH, not shown: a dimerising Fc or GST)
VHH: EVQLVESGGGLVQPGGSLRLSCAASGTTLDYYAMGWFRQAPGKEREFVAAISWSGGSTAYADSVKGRFTISADNSKNTAYLQMNSLKPEDTAVYYCAREDYYDSSGYSWGQGTLVTVSS
For B15, the Kd in assay [1] came to 1.7 nM; in assay [2] it was 100 nM; in assay [3], 40.5 nM. Also, the binding result in assay [4] is “no binding”.

B16: 7-21 (VHH)
VHH: EVQLVESGGGLVQPGGSLRLSCAASGRTISRYTMGWFRQAPGKEREFVASITSGGSTAYADSVKGRFTISADNSKNTAYLQMNSLKPEDTAVYYCAKEDVGKPFDWGQGTLVTVSS
Regarding B16, the binding result in assay [1] and in assay [4] was “no binding” each time. Further, the figures for the Kd in assay [2] and in assay [3] were 277 nM and 35.6 nM, respectively.

B17: 7-40 (VHH)
VHH: EVQLVESGGGLVQPGGSLRLSCAASGRTFRRYTMGWFRQAPGKEREFVASITKFGSTNYADSVKGRFTISADNSKNTAYLQMNSLKPEDTAVYYCAKEDVGKPFDWGQGTLVTVSS
On to B17, for which the binding result in assay [1], in assay [2], in assay [4] and in assay [3] was “no binding” each time.

B18: 7-45 (VHH)
VHH: EVQLVESGGGLVQPGGSLRLSCAASGRTLSRYTMGWFRQAPGKEREFVASITSGGSTNYADSVKGRFTISADNSKNTAYLQMNSLKPEDTAVYYCAKEDVGKPFDWGQGTLVTVSS
For B18, the binding result in assay [1], in assay [2] and in assay [4] was “no binding” in each case. Also, in assay [3], binding was characterised by a dissociation constant (Kd) of 43.4 nM.

B19: 7-22 (VHH, not shown: a dimerising Fc or GST)
VHH: EVQLVESGGGLVQPGGSLRLSCAASGRTITRYTMGWFRQAPGKEREFVASITSGGSTAYADSVKGRFTISADNSKNTAYLQMNSLKPEDTAVYYCAKQDVGKPFDWGQGTLVTVSS
For the molecule B19, the binding result in assay [1] and in assay [4] was “no binding” throughout. Further, the figures for the Kd in assay [2] and in assay [3] were 698 nM and 41.7 nM, respectively.

B20: 7-41 (VHH)
VHH: EVQLVESGGGLVQPGGSLRLSCAASGRTFSTYVMGWFRQAPGKEREFVASISSRGITHYADSVKGRFTISADNSKNTAYLQMNSLKPEDTAVYYCAKEDVGKPFDWGQGTLVTVSS
B20: the binding result in assay [1] and in assay [4] was “no binding” throughout. For the same molecule, the Kd in assay [2] stood at 95.5 nM; in assay [3], 35.6 nM.

B21: 7-29 (VHH, not shown: a dimerising Fc or GST)
VHH: EVQLVESGGGLVQPGGSLRLSCAASGRTHSIYPMGWFRQAPGKEREFVASITSYGDTNYADSVKGRFTISADNSKNTAYLQMNSLKPEDTAVYYCAARRWIPPGPIWGQGTLVTVSS
With B21, the binding result in assay [1], in assay [2] and in assay [4] was “no binding” throughout. This molecule also registered a Kd in assay [3] of 54.8 nM.
